Target: the molecule itself
Assay: EPR-DEER; Q-band (34 GHz) four-pulse DEER at 50 K on MTSL-labelled XIAP; dimer concentration 15 uM; 20 mM Tris pH 7.4

B1: XIAP C202R1 (XIAP C12A, C213G, C351S labelled with MTSL nitroxide on Cys202) (natural protein, human, UniProt P98170 1-497, looked up)
chain: MTFNSFEGSKTAVPADINKEEEFVEEFNRLKTFANFPSGSPVSASTLARAGFLYTGEGDTVRCFSCHAAVDRWQYGDSAVGRHRKVSPNCRFINGFYLENSATQSTNSGIQNGQYKVENYLGSRDHFALDRPSETHADYLLRTGQVVDISDTIYPRNPAMYSEEARLKSFQNWPDYAHLTPRELASAGLYYTGIGDQVQCFCCGGKLKNWEPGDRAWSEHRRHFPNCFFVLGRNLNIRSESDAVSSDRNFPNSTNLPRNPSMADYEARIFTFGTWIYSVNKEQLARAGFYALGEGDKVKCFHCGGGLTDWKPSEDPWEQHAKWYPGCKYLLEQKGQEYINNIHLTHSLEESLVRTTEKTPSLTRRIDDTIFQNPMVQEAIRMGFSFKDIKKIMEEKIQISGSNYKSLEVLVADLVNAQKDSMQDESSQTSLQKEISTEEQLRRLQEEKLCKICMDRNIAIVFVPCGHLVTCKQCAEAVDKCPMCYTVITFKQKIFMS
modifications: MTSL nitroxide spin label on Cys202
notes: Mutations were introduced into the WT XIAP gene; also called XIAP C202-MTSL
B1: binds.

From article PMC6760453, “Conformational characterization of full-length X-chromosome-linked inhibitor of apoptosis protein (XIAP) through an integrated approach” (IUCrJ, 2019)
